This note sets out measurements from article PMC3695626 (Cell, 2013).

This data set deals with the molecule itself. Briefly: cryo-EM structure.

B1: GroES (natural protein, E. coli)
chain: MNIRPLHDRVIVKRKEVETKSAGGIVLTGSAAAKSTRGEVLAVGNGRILENGEVKPLDVKVGDIVIFNDGYGVKSEKIDNEEVLIMSESDILAIVEA
On to B1, for which the “stoichiometry N” value amounted to 7.
